Experiments:
decorin protein core = decorin protein core (UniProt P07585); assay: ELISA
soluble Fc-tagged VEGFR3 = assay: ELISA

decorin protein core, sequence (P07585 31-359): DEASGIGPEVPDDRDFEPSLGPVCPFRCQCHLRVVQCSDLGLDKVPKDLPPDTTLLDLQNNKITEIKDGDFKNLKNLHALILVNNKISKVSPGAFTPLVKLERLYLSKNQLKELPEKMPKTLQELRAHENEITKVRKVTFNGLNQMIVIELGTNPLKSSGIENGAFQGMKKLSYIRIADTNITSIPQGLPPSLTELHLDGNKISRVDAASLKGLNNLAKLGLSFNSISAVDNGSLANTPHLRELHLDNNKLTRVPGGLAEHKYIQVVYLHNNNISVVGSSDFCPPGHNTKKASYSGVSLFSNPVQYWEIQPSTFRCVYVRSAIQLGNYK

Question: Which Kd (decorin protein core) does the source give for soluble Fc-tagged VEGFR3 (Fc fusion) here?
Answer: Its Kd is 47 nM.

Question: “VEGFC (from UniProt P49767 32-227) (ligand)” was tested. Which percent of bound decorin protein core displaced (soluble Fc-tagged VEGFR3) did it give?
Answer: Its percent of bound decorin protein core displaced is 20%.

Question: Which Kd (soluble Fc-tagged VEGFR3) does the source give for “decorin protein core (from UniProt P07585 31-359) (natural protein)” here?
Answer: The Kd was 27 nM.
